Where “and” joins values, the source holds several entries; their conditions need not be identical. Equal values may be shown once.
Columns and labels:
[1] = molecular target: LbCas12a-Trex2 fusion (C-terminal Trex2; construct 25962) (Simian virus 40; Lachnospiraceae bacterium ND2006; Mus musculus); assay: cell-based or functional assay
[2] = molecular target: LbCas12a-scTrex2 fusion (single-chained Trex2 homodimer at the C-terminus; construct 27433) (Simian virus 40; Lachnospiraceae bacterium ND2006; Mus musculus); assay: cell-based or functional assay

Substance | 1 kb Inversion (targeted fragment inversion in transgenic maize plants) [1] | 1 kb Inversion (targeted fragment inversion in transgenic maize plants) [2] | targeted inversion frequency among the 13 plants in which both targets were edited [2] [%]
LbCas12a-Trex2 fusion (C-terminal Trex2; construct 25962) (enzyme) | 28 plants and 18.4% | – | –
LbCas12a-scTrex2 fusion (single-chained Trex2 homodimer at the C-terminus; construct 27433) (enzyme) | – | 1 plants and 2% | 7.7

From patent publication US20250382598A1
